Experimental data taken from PMC7908025 (ACS Central Science, 2021).

Columns and labels:
[1] = target: PmST1 (Pasteurella multocida, UniProt Q15KI8); type: biochemical
[2] = system: CC(=O)N[C@H]1[C@H]([C@H](F)[C@H](O)CO)O[C@@](O[C@H]2[C@@H](O)[C@@H](CO)O[C@@H](Oc3ccc4c(C)cc(=O)oc4c3)[C@@H]2O)(C(=O)O)C[C@@H]1O; assay: purified protein
[3] = system: CC(=O)N[C@H]1[C@H]([C@H](O)[C@H](O)CO)O[C@](OP(=O)(O)OC[C@H]2O[C@@H](n3ccc(N)nc3=O)[C@H](O)[C@@H]2O)(C(=O)O)C[C@@H]1O; assay: purified protein
[4] = target: porcine N-acyl-D-glucosamine 2-epimerase (AGE) (Sus scrofa, UniProt P17560); type: biochemical; details: 35 °C, 48 h
porcine N-acyl-D-glucosamine 2-epimerase (AGE), sequence (P17560 whole entry): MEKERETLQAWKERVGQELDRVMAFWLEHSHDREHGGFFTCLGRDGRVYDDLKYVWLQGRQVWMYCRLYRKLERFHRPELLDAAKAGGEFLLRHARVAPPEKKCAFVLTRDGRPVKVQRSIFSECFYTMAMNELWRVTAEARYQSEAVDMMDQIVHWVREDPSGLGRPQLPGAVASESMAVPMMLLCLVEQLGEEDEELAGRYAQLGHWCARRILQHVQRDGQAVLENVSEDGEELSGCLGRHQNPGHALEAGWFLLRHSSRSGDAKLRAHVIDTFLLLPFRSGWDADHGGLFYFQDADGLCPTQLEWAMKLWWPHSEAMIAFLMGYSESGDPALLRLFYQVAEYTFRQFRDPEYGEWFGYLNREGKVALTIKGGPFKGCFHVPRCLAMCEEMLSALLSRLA

CC(=O)N[C@H]1[C@H]([C@H](O)[C@H](O)CO)O[C@](OP(=O)(O)OC[C@H]2O[C@@H](n3ccc(N)nc3=O)[C@H](O)[C@@H]2O)(C(=O)O)C[C@@H]1O [compound 9, CMP-7OHSA]
Km [1]: 89 µM

(Micromonospora viridifaciens)
Km [2]: 1.2 (±0.15) mM
kcat/Km [2]: 2250 ± 1000 M⁻¹ s⁻¹

(Photobacterium sp. JT-ISH-224)
Km [3]: 70 (±1) μM
kcat/Km [3]: 656000 M⁻¹ s⁻¹

CC(=O)N[C@H]1C(O)O[C@H](CO)[C@H](F)[C@@H]1O (stereo partly drawn) [compound 2, 4-deoxy-4-fluoro-GalNAc]
one-pot epimerase/aldolase conversion, 19F NMR [4]: the epimerase was converting the GalNAc starting material
